Data as given in US20070036793A1, “Methods for use of an lkb1/strad7mo25 complex” (priority 2003, published 2007).
Where no end group is shown, it is not given here. The star is where a group is joined. C6spacer = spacer between biotin and the peptide; Biotin = O=C1N[C@H]2[C@H](CS[C@H]2CCCCC(=O)*)N1

Assays:
[1] = biological target: T1, bacterially expressed MO25α (human, UniProt Q9Y376 1-341); assay: SPR (BiaCore 3000), biotinylated STRADα-C12 peptide on streptavidin chip, MO25α 6.25-3200 nM, steady-state fit
T1 construct: Expressed as GST fusion from pGEX-6T in E. coli BL21; GST tag cleaved off; also called MO25α protein (E. coli)
T1 sequence: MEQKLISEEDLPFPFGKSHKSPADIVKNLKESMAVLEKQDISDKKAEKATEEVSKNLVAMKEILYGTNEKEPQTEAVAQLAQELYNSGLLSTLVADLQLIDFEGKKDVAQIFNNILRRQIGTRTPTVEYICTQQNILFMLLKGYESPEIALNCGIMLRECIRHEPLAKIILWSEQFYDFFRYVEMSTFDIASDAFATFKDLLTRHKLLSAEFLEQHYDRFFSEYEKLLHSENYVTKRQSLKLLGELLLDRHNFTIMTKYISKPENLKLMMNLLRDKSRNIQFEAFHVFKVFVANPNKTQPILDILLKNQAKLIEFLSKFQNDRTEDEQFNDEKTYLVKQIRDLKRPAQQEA
Protocol: 5 μg of the total cell lysates prior to affinity purification were also subjected to immunoblotting with anti-Myc antibody to ensure that Myc-MO25α was expressed at similar levels in each condition (lower panel). (B) 0.5 mg of the indicated cell lysates was incubated with 5 μg of an N-terminal biotinylated peptide encompassing either the C-terminal 12 residues STRADα conjugated to streptavidin-Sepharose ([…], termed STRADα-C12) or mutants of this peptide in which the indicated residues were individually mutated to Ala. Following isolation and washing of the beads, the samples were subjected to SDS-polyacrylamide gel electrophoresis and immunoblotted with an anti-MO25α antibody. (C) Binding of bacterially expressed MO25α to the indicated peptides was analysed by surface plasmon resonance BiaCore analysis as described in Materials and Methods. […] WEF-C12 corresponds to […], WEA-C12 corresponds to […], AEF-C12 corresponds to […], WAF-C12 corresponds to […], WEF-C6 corresponds to VDDWEF.
Biacore analysis. Binding was analysed in a BiaCore 3000 system (BiaCore AB, Stevenage, UK). The indicated biotinylated peptides were bound to a streptavidin-coated Sensor chip (SA) (20 response units, RU). […] Dissociation of MO25α from each peptide was monitored over a 1 min period. […]

[2] = system: T2, BRSK2 MASLQVGDSLLETSCGSPHYRRR
T2 sequence: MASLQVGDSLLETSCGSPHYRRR

[3] = system: T3, LKBtide peptide (NUAK2 T-loop peptide)
T3 sequence: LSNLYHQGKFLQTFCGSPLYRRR

[4] = system: T4, MARK3 FSNEFTVGGKLDTFCGSPPYRRR
T4 sequence: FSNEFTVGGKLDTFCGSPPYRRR

[5] = system: T5, MELK AKPKGNKDYHLQTCCGSLAYRRR
T5 sequence: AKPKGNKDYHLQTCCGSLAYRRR

[6] = system: T6, SIK FGNFYKSGEPLSTWCGSPPYRRR
T6 sequence: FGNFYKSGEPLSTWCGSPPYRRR

[7] = system: peptide derived from the T-loop of AMPKα1 (Example 4, FIG. 26A)
[8] = system: T2, BRSK2 MASLQVGDSLLETSCGSPHYRRR; assay: kinetic analysis of peptide phosphorylation by the LKB1:STRAD:MO25 complex, nonlinear regression
[9] = system: T4, MARK3 FSNEFTVGGKLDTFCGSPPYRRR; assay: as above
[10] = system: T5, MELK AKPKGNKDYHLQTCCGSLAYRRR; assay: as above
[11] = system: T6, SIK FGNFYKSGEPLSTWCGSPPYRRR; assay: as above
[12] = substrate: CC(C)C[C@H](NC(=O)[C@H](CC(N)=O)NC(=O)[C@H](CO)NC(=O)[C@@H](N)CC(C)C)C(=O)N[C@@H](Cc1ccc(O)cc1)C(=O)N[C@@H](Cc1c[nH]cn1)C(=O)N[C@@H](CCC(N)=O)C(=O)NCC(=O)N[C@@H](CCCCN)C(=O)N[C@@H](Cc1ccccc1)C(=O)N[C@@H](CC(C)C)C(=O)N[C@@H](CCC(N)=O)C(=O)N[C@H](C(=O)N[C@@H](Cc1ccccc1)C(=O)N[C@@H](CS)C(=O)NCC(=O)N[C@@H](CO)C(=O)N1CCC[C@H]1C(=O)N[C@@H](CC(C)C)C(=O)N[C@@H](Cc1ccc(O)cc1)C(=O)N[C@@H](CCCNC(=N)N)C(=O)N[C@@H](CCCNC(=N)N)C(=O)N[C@@H](CCCNC(=N)N)C(=O)O)[C@@H](C)O; assay: Kinetic analysis of phosphorylation of T-loop peptides by the LKB1:STRAD:MO25 complex (Example 4); format: biochemical; settings: other: phosphorylation by LKB1 complex, nonlinear regression; pH 7.5; 30.0 °C
Protocol: FIG. 26. Identification of peptide substrates for LKB1. (A) Kinetic analysis of the phosphorylation of the indicated T-loop by the LKB1:STRAD:MO25 complex was performed. The T-loop Thr residue in each peptide is underlined and in boldface type and 3 Arg residues were added to the C-terminus of each T-loop peptide to enable their capture on phosphocellulose p81 paper. Km and Vmax values were determined from nonlinear regression. (B) An aliquot of each peptide phosphorylated by LKB1 complex was subjected to solid phase Edman sequencing and ^32P-radioactivity was measured after each cycle of Edman degradation. […] The results are expressed as the peptide kinase activity generated per mg of LKB1:STRAD:MO25 added to the assay. […]
Measurement of activation of AMPK-related kinases AMPKα1 catalytic subunit and AMPK-related kinases was measured following their phosphorylation with LKB1 as follows. […] After incubation at 30° C. for the times indicated in the figure legend, AMPKα1 catalytic domain or AMPK-related kinase activities were determined by adding 30 μl of 5 mM magnesium acetate, 0.1 mM [γ-^32P]-ATP (300 cpm/pmol) and 200 μM AMARA peptide (AMARAASAAALARRR (Dale et al., 1995)) as substrate. […] Kinetic data was analysed according to the Michaelis-Menten relationship by non-linear regression using the computer program GraphPad Prism (GraphPad Software Inc, San Diego, USA). […]

B1: STRADα-C12 peptide (Biotin-C6spacer-NLEELEVDDWEF) (peptide)
peptide: {Biotin-C6spacer}-NLEELEVDDWEF
notes: also called WEF-C12; C-terminal 12 residues of STRADα
Work on B1 yielded a Kd [1] of 850 nM.

B2: LKB1:STRAD:MO25 complex (Example 4, FIG. 26A) (enzyme, part only; not given: STRAD and MO25 subunits, GST)
chain: MDVADPEPLGLFSEGELMSVGMDTFIHRIDSTEVIYQPRRKRAKLIGKYLMGDLLGEGSYGKVKEVLDSETLCRRAVKILKKKKLRRIPNGEANVKKEIQLLRRLRHRNVIQLVDVLYNEEKQKMYMVMEYCVCGMQEMLDSVPEKRFPVCQAHGYFRQLIDGLEYLHSQGIVHKDIKPGNLLLTTNGTLKISDLGVAEALHPFAVDDTCRTSQGSPAFQPPEIANGLDTFSGFKVDIWSAGVTLYNITTGLYPFEGDNIYKLFENIGRGDFTIPCDCGPPLSDLLRGMLEYEPAKRFSIRQIRQHSWFRKKHPLAEALVPIPPSPDTKDRWRSMTVVPYLEDLHGRAEEEEEEDLFDIEDGIIYTQDFTVPGQVLEEEVGQNGQSHSLPKAVCVNGTEPQLSSKVKPEGRPGTANPARKVCSSNKIRRLSACKQQ
B2 was tested, and the Vmax of phosphorylation of the BRSK2 T-loop peptide by the complex [2] was 10.6 U/mg, the Vmax/Km for the BRSK2 T-loop peptide (Vmax in U/mg, Km in mM) [2] was 26 and the Vmax of phosphorylation of the NUAK2 T-loop peptide by the complex [3] was 86.8 U/mg. The Vmax/Km for the NUAK2 T-loop peptide (Vmax in U/mg, Km in mM) [3] was 578, the Vmax of phosphorylation of the MARK3 T-loop peptide by the complex [4] was 10.2 U/mg and the Vmax/Km for the MARK3 T-loop peptide (Vmax in U/mg, Km in mM) [4] was 16. For the same binder, the Vmax of phosphorylation of the MELK T-loop peptide by the complex [5] was over 60 U/mg, the Vmax of phosphorylation of the SIK T-loop peptide by the complex [6] was 63.9 U/mg and the Vmax/Km for the SIK T-loop peptide (Vmax in U/mg, Km in mM) [6] was 139. The “Km (phosphorylation of the T-loop peptide)” value [7] was “(Km, 1.4 mM)”, the Vmax of phosphorylation of the AMPK T-loop peptide by the complex [7] was 94.1 U/mg and the Vmax/Km for the AMPK T-loop peptide (Vmax in U/mg, Km in mM) [7] was 67. It also gave a Km [8] of 400 µM, a Km [9] of 620 µM and a Km [10] of over 3000 µM. The Km [11] was 460 µM.

B3: LKB1:STRAD:MO25 complex (Mus musculus) (protein)
chain: MDVADPEPLGLFSEGELMSVGMDTFIHRIDSTEVIYQPRRKRAKLIGKYLMGDLLGEGSYGKVKEVLDSETLCRRAVKILKKKKLRRIPNGEANVKKEIQLLRRLRHRNVIQLVDVLYNEEKQKMYMVMEYCVCGMQEMLDSVPEKRFPVCQAHGYFRQLIDGLEYLHSQGIVHKDIKPGNLLLTTNGTLKISDLGVAEALHPFAVDDTCRTSQGSPAFQPPEIANGLDTFSGFKVDIWSAGVTLYNITTGLYPFEGDNIYKLFENIGRGDFTIPCDCGPPLSDLLRGMLEYEPAKRFSIRQIRQHSWFRKKHPLAEALVPIPPSPDTKDRWRSMTVVPYLEDLHGRAEEEEEEDLFDIEDGIIYTQDFTVPGQVLEEEVGQNGQSHSLPKAVCVNGTEPQLSSKVKPEGRPGTANPARKVCSSNKIRRLSAC
notes: Constructs expressing the full length wild type and kinase dead mouse LKB1 have been described previously; made in house; host or cells: 293 cells, co-transfected
Work on B3 yielded a Km [12] of 150 µM.
